Laboratory results from the domain aggregation screens of Martell et al. (2025).

Assay: soluble fraction after stress (log2 fold change); higher = more stays soluble; pooled small domains, quantitative proteomics
Details: stress: 75 degC
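Also: 20 min heating vs room temperature control held 20 min.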

Sequence	soluble fraction (log2)
HMDDKVGKVFNYVQEKILTGEWDIGDKITPEISLSKELGVSRSVVREAIKKFVALNILSRTQGGGTYVNNL	-0.848
HMDDNMNEQWKMILNSIAKKGSVTRQETEKILGIGQTRAHVLLKAMIHAGMIKAVGDGKKRRYVR	-2.28
HMDDNRSLSDLAQQVFKRENIQVSRDTLSLLVSRLGSDRAVSRQEIEKLALFAGSNGKLTEEDIHNALG	0.0459
HMDDPISSMVNRIRLAFGLSVTDLAAVLGVERPTIYSWLKDGSTPAPARLTRVRQVLSLADTW	-0.729
HMDDPITVAYRETEDAIAQVQREGFPVEMPPANSYIRRIQHELAGRFNLDSESYGDEPERRVRIRPQQ	-0.107
HMDDPTVILFDPKNGQRKIVKWKAGLTLYSARRSAGISSAAEATIQRAGKSLSGRTATALEPGDVIRW	-1.74
HMDDSSLFGRHTGIGFIVDDIDSGYQTLLAKGVSFEMPPTEQPWGGILALMKDPDGNIFYLD	-0.0389
HMDDTRLLSEIGLSQRVLNALRARGIERVGQVLAMRPDQLLGIRNFGPRALQELRERLQENGYTEGPLFSG	0.379
HMDDVIDVYATYDVSPTNQISNIKLYSDAAHANPVTGEAGKSYNDITEGHPGYQFRWSGTTWVPI	-1.04
HMDDVIEVEGKVVEVLPNTKFIVELANSHKITAHISGKLRMNYIRIMKGDNVTVEMSPYDLTKGRIIWRS	-0.165
HMDDVVVLPFTAEFARMSSDDFVREILVGKIGMKRFVVGYNHRFGSGQQGDFASLQRMQGELGFVAVRVG	0.368
HMDDVYMVPVKDIAINDLKQEFEKLGIPNIQNTIPDKDLNFFIVRKDDLALVNYAIEKTMER	0.0193
HMDEAETELIRRMVSEHPPTTKRERDIVQMRLRGYLFVEIGEAYGISFQRAAQIYNAAVEKIKEYWD	-0.242
HMDEEQIASRRALIMRAAREIMETQGMEALSIRKIAAMIQQTPGIIYHYFSGKEELMLAVVQEGYH	-0.00144
HMDEFAGSAKPLADGAAPAGYDVKGNKDSMKYHEPGGRWYDATVAEVWFKTAADAEAAGFVKAGA	0.167
HMDEFHLSERERQILNLLVLGHTYKHIASDLNIAYATVNKHVSNVYAKLRVQSASEAVALAIRKGL	-0.992
HMDEFTIILEDAGSQKIAVIKEVRVLNSSLGLKEAKDLVDATPATIMEKADKATADKAKAAFEAAGAKVTI	-0.257
HMDEIDYSKYSITTSNRIINIDGVQSKVELFDVSGRSIQSTMVTGKFSSRPLNAGFYIIHVDGYSVKVSV	-1.19
HMDELIKQVANYIINNRATINETAGAFGKSVSSIKKYINDADKLQRIDFELYQKVKEVQKIVELNGQI	-0.396
HMDEMEFQKYVDQNLKQKGISLTAEAKAELLLRLGGDTMLLHSAIEKLDLYGEKNLNLNDIKHLVSLNSDV	0.254
HMDENMQRYNTMEEIKKEFPYAEDTVRKLIAMGAIRGGGKVDANGDPADMDLSRDMLRMMVFNDRAGAYG	0.524
HMDEPGTGFKWREDVLLRVMEANGIDTSHRDDFVRHAVKFDNDDNLYLKKAEIEDAAAAWVSEHS	0.161
HMDERLAKLTPQERKILDLIAEGATNRQIGTELHLAEKTVKNYVSNMLMKLGMSRRTEAAVFAVKASIN	-1.9
HMDERLLRLYERELQFLREGADEFAQAYPKVAGHLGLNSQSMGDPFIERLLEGLGFLTARIQLQLESEF	-0.47
HMDEWFPVNDDYKFMVGDEVRTPDGLVKVVATHNDSATFYGKIITPIHDDVLKGETYEYRSYEAQVLA	-0.331
HMDEWKRKELWDAIARLPKIQRMVVTMRTTENLPYKEIAKIMNISENSAKVNYHHAVEALKIFF	-2.84
HMDEYGEVQALQRAGQTSEALARADRHIAAHPNDPQMRFVKANLLSAGGRAGEAETLLVQLTRD	-0.0543
HMDFDLIAIFEEQFARALSPIEINIIKEWKNSNYSDDMIVKALKEAVKSQVFNFRYIERILINWSQNG	-1.9
HMDFDVELTSAGTAKVKVIKAVREATGLGLKEAKDLVDNAPSIVKEGLDEAAANDLKAALEETGASVTL	0.0189
HMDFEEGAVKWFNTKKGYGFITRDQGDDIFVHFRNIKAQSRRSLTDGERVTFVVTEGDKGLQADHVSPV	-0.411
